Results published in the DeepSol protein solubility set.

Test: soluble on expression in E. coli; label from the status in PepcDB or PDB records

| Sequence | soluble on expression in E. coli |
| --- | --- |
| MGSDKIHHHHHHMNFKDCIDSYPFILMEGALGERLKREFDLDISGTVAMADLVYQQKGRLALETLWNEYIDIAYRYQLPFLATTPTRRANKERIYMAGYNESIIADNVDFLRSIKEAANVDMYIGGLMGCKGDAYTGEEALNLEEAIDFHSWQAGLFKSAKVDFLYAGIMPVLTEAIGMAVAMSDTDIPYIISFTIQRDGKLIDGHTIDDAIHCIDNHVSNKPVCYMTNCVHPDIVYEALSHKFNQTQTVKSRFWGIQANTSQLSYKELDGANHLHTSSAADLSEAILKLKSDCHLKIFGGCCGTDSSHMEKIAKISEVT | not soluble |
| MSQGQSKKLDVTVEQLRSIYHQFHDILEEKTDLHLPKKEYDDDAVRREVQIQLQEFLLSAMTMASKSLEVVNADTVGKTVKQLIMESQEKYMEPFDLDLNEQVRKMYQEWEDETVKVAQLRQTGPAKINEVYNNSKDEYLAQLDGRIGVLQARMMQQQSADHDDSTDDADDHINWEHIKQDYVASLNELYQTQQDLPKVRYNVEKVKRLMDFLEED | soluble |
| MSLINRFSVPLLETSTIDLANVASNKIEPETVLTNARILSTYSDRILKDKELWIFKGRIACIKPSGSYKEFFQMDKSKIYEVNNNILAPGLIDPHMHIESSMMTGCAYAEAALLNGTTTIFCDSHEIGNVCDTDGIEWMLQDCRESPISIFLTLPSTIPATNKYLETAGGDLTDKKTAILFDKWPEIKGLGEKMDFVSVCEGNERSHSIISETLKRNLPVSGHVFGREFVAAYAASGITDTHEAEDKLFTNDLLDAGLWIFLRGGNPKTPWNSIKEAIKVITESEASTKRICVCTDDRDADDLFNFGLDWVVRQANTLGINNTTAWSMGSLHPATRFNIDRDYGALGHSRRADIVMINDNLEVLNTWLGGHLAVENKKITSLIDKQLSENRYQYPKRAYNTVILPKKINFIPDMPKESEFKINVIKTELPGIMTFKETIHIKEGHHHHHH | soluble |
| MSLDVLGHVFEYFLGEFALAEGKQGGQFYTPKCVVELLVTMLEPYKGRVFDPCCGSGGMFVQSEEFVKSHQGRLDDISIYGQESNQTTYKLAKMNLAIRKIESSQVIWNNEGSFLNDAHKDLKADFIIANPPFNDSDWSGELLENDGRWKYGVPPASNANYAWIQHFLYHLSPNGGVAGFVLAKGALTSNTTNEAAIRKALIEDDLIDCIVNLPAKLFLNTGIPASLWFIRRQKLPKTVKKTLFIDARDLGTRINRRNKTLNKDDINQIANIYKAWKNGTDYEDIKGFCKSVSIDEIRELSYVLTPGRYVGLADSDDEFDFDTRFNELLAKLKSQIKTEQELSEIILKNLEKIKEGHHHHHH | not soluble |
| MGSDKIHHHHHHMGIKIPNMKPNYSLDDMRCFCMVAQYGSFKQAAVALQMPLSTLSRRIAKLEQDLALRLFNRDAHRVQLTFAGQRYYRRSAPIFDELDNVAACLQQDRNEAKGTIRISAPINFSVQVLVHHFNAFMRQYPDIELDLKLSNQTIDIDEEAMDLAFRIGHHSATHWIGRQLTNIRFAICGPANLDVSHIKAPADLAGLPTVLCSPMLTWSLQHIHSGEKQAYTATDNIRLKVDDMSLLTEVIAGGIGVGFIPDYHAQPLLESGKIQHILPAWSNQARGCEMLYRDRENIPYRVRLFIDFMLQRFKSNDGVM | not soluble |
| MSLIIMKAITVLSGGLDSTVVTLIAKDLGYEVTAITFNYGQRAAKREINSAKKICEILGIEHIVVDLPFVKQFGKSSLITEKEIPTLKMEELDSEKAYETMKAVWVPARNVIMFGIASGFAEALDAEKIFIGINKEEGVTFPDNTIEFVEAFNKVLEYGTLNKVKIEAPLYDKTKEEIVKLGAELEKKLGVEVLKYSYSCYHDNGEDFLHCGKCESCMRRKRAFLMAGVEDKTKYIEEGHHHHHH | soluble |
| MPFTPSEIKNKEFTRVKNGLEPTEVANYLEQLSNEIERLKEDKKQLEKVIEDRDSNIKSYKDVHQSVSDALIQAQKVGEETKQAATKEAEAVLSKAQVQADSIVNDAIEKARRLAFQTEDMKRQSKVFRSRFRMLVEAQLDLLKSEDWDYLLNYDLDAEQVTLEDIHHLHDNDLTPEERAMKQKQNQEISANQPSTSSSESVSQSNANNESSQSTSNN | soluble |
| MSNTTGQWCDGNSVELLINGEDFYARVFECIRAARKEVLIETFIIFEDRIGEGLQQALLQAAANGAKVVVTVDDYGTSDLSSVFVKTMIDAGIQIQLFDPRPRFMGMRTNLFRRLHRKVVVIDGELGFIGGINYSVDHMTDTGVTAKQDYAVLVRGPIVGDIHHSALNMLSKVVRDKLPPIALKLDRAGDASMLLAER | not soluble |
| MSALAVALARQSESHADCPLFNDPYAQVFIDAALSRGCQLPSDETSERINGIANYASSRTKWFDEYFIAAGAHGLEQMVIVAAGLDARAWRLPWVAGTTLFEIDHPGVLKFKNEALHEHGESPSVSRYVPVPADLSDGWSERLRDAGFDVSEPTAWAVEGLLPYVADGPHLLFDRIHEISPAGSRLAVEAVGTGVADWLSTQGWQVTMIGAQELMTRYGRCGDHSDTDAGMDTVFVNATRTR | soluble |
| MQIVTDKNKVALYYKDIAVTYKEFILNTKKIKQFTKIKEFTNNMIYMENRPELLYSFFAIWDSRATCVCIDASSTAVELTYYIDNSDVVKIFTTKMQVEKVKGALSILSKQIEIIVVDEINLSEIKIDENSSENLVINSPEKEDTALILYTSGTTGKPKGVMLTFDLEHHHHHH | not soluble |
| MAHHHHHHSLAKRIVGSTPKQDGFRMPGEFEPQEKVWMIWPERPDNWRDGGKPVQEAFTNVAKAISQFTPMNVVVSQQQFQNCRRQLPPEITVYEMSNNDAWVRDCGPSFVINDHGEIRGVDWTFNAWGGLVDGLYFPWDQDDLVAQKICEIEHVDSYRTDDFVLEGGSFHVDGQGTVLTTEMCLLSEGRNPQLSKEAIEQKLCDYLNVEKVLWLGDGIDPEETNGHVDDVACFIAPGEVACIYTEDQNSPFYEAAQDAYQRLLKMTDAKGRQLKVHKLCCPVKNVTIKGSFKIDFVEGTMPREDGDICIASYMNFLITNDGVIVPQYGDENDHLALEQVQTMFPDKKIVGVNTVEVVYGGGNIHCITQQEPKREG | not soluble |
| DPQPDPLQPDVYLLVNARAAHTNGEESINMDAEDFEDRVHSLAMLVFDSNTGEKVAEHFSSSIGSGTSTYVFTVKLKPGQRD | not soluble |
| MRELQADFVKPARIDILLDMPPASRDLQLKHSWNSEDRSLNIFVKEDDKLTFHRHPVAQSTDCIRGKVGLTKGLHIWEIYWPTRQRGTHAVVGVCTADAPLHSVGYQSLVGSTEQSWGWDLGRNKLYHDSKNCAGVTYPAILKNDEAFLVPDKFLVALDMDEGTLSFIVDQQYLGIAFRGLRGKKLYPIVSAVWGHCEITMRYIGGLDPEPLPLMDLCRRTIRQKI | soluble |
| MRFTVTSRGDDVSNTLQQKIKRYLLDFGLTLDEQEPDIVITVGGDGTLLHAFHRYTSRLEDTAFVGIHTGHLGFYADWVPDEVEKLVIHIAKTPYQIVEYPLLEVVVRHTDESESKRLLALNECTVKSQEGSLVSNVEIKGDVFEVFRGDGLCISTPSGSTAYNKALGGAILHPSLASIQISEMASINNRVYRTIGSPLVLPQHHTCLIKPLNQVELQVTIDHFTLAYKRVKSIQCRVAEEKIRFARFRPFPFWKRVKESFIGDSLEHHHHHH | soluble |
| MANLIYLTLNGDNQGLISSGCSSQPSIGNKAQTAHIDQIMIYEFMHGLNRDQNVNHHHLTIKKPIDKASPLLGKAICDNELLTCDFSFYRTNKFGINELFYKIKLTGAKISDIHVSISHIVVDNSVQPEESVSFSYESIIWEHCSAGTSAYSLWEDRLF | not soluble |
| MKALNREVIEYFKEHVNPGFLEYRKSVTAGGDYGAVEWQAGSLNTLVDTQGQEFIDCLGGFGIFNVGHRNPVVVSAVQNQLAKQPLHSQELLDPLRAMLAKTLAALTPGKLKYSFFCNSGTESVEAALKLAKAYQSPRGKFTFIATSGAFHGKSLGALSATAKSTFRKPFMPLLPGFRHVPFGNIEAMRTALNECKKTGDDVAAVILEPIQGEGGVILPPPGYLTAVRKLCDEFGALMILDEVQTGMGRTGKMFACEHENVQPDILCLAKALGGGVMPIGATIATEEVFSVLFDNPFLHTTTFGGNPLACAAALATINVLLEQNLPAQAEQKGDMLLDGFRQLAREYPDLVQEARGKGMLMAIEFVDNEIGYNFASEMFRQRVLVAGTLNNAKTIRIEPPLTLTIEQCELVIKAARKALAAMRVSVEEA | not soluble |
| MSLIQIENQTVSGIPFLHIVKEENRHRAVPLVIFIHGFTSAKEHNLHIAYLLAEKGFRAVLPEALHHGERGEEMAVEELAGHFWDIVLNEIEEIGVLKNHFEKEGLIDGGRIGLAGTSMGGITTLGALTAYDWIKAGVSLMGSPNYVELFQQQIDHIQSQGIEIDVPEEKVQQLMKRLELRDLSLQPEKLQQRPLLFWHGAKDKVVPYAPTRKFYDTIKSHYSEQPERLQFIGDENADHKVPRAAVLKTIEWFETYLEGGSHHHHHH | soluble |
| MGTILDKIVNQKKKEVAALYETYTPVKEKRKTRSLVKALEQFTVIAEVKRASPSKGDINLHVDVRKQVKTYEECGAGAVSVLTDGQFFKGSFYDLQTAREESSIPLLCKDFIIDKIQIDRAYEAGADIILLIVAALTKEKLKELYSYVLEKGLEAIVEVHDEQELEIAIQLNPHVIGINNRNLKTFEVDLSQTEKLGKRLNEEKLLWISESGIHSKEDIIRVKRAGAKGVLVGEALMTSSSIHTFFEDCKVNI | not soluble |
| GVEFMAGYYDTKNQALNPVSRTERPYPIVTVQNYVEKAIKEGRIQMNVEIEAFTTDIRMIVIGNVFEWCLRNGEADFEGNMVRSLGKYLDSTLD | not soluble |
| MKKILLCCSAGMSTSMLVKKMQQAAESKGIECKIDALSVNAFEEAIQEYDVCLLGPQVRFQLEELRKTADEYGKNIAAISPQAYGMMKGDEVLQQALDLIN | not soluble |
| MKEKISKKEYNALIRKTGEKHFDGEKEEYGDGTVGLWTYELRKYKLKPPVKVKYVTQEEFGEFKDATNQRLTKIENALVAQGEQIRAQGEQLSQLIKVVLLQGEQIKSQGEQIKSLEHHHHHH | not soluble |
| MGAAKASLGRIFPESSILFLCDMQEKLRDRILYFPQIVSMAARMLKVAQMLEIPVLLTEHYPQGLGPTVPELGAQGLRTMSKTSFSMVPPLQQELDKLPQLQSVLLRGIETQGCILHTALDLLDRGLQVHVAVDACSSQSEMNRLVALARMQQSGVFLSTSEVLILQLVKDAAHPQFKEIQKILKEPVTDIGLLGFFQGKKNSLLPNSRT | not soluble |
| VVPGDASSVVSVNPAKPLISVCIPMYNNGATIERCLRSILEQEGVEFEIVVVDDDSSDDCAAIAATMLRPGDRLLRNEPRLGLNRNHNKCLEVARGGLIQFVHGDDRLLPGALQTLSRRFEDPSVGMAFAPRRVESDDIKWQQRYGRVHTRFRKLRDRNHGPSLVLQMVLHGAKENWIGEPTAVMFRRQLALDAGGFRTDIYQLVDVDFWLRLMLRSAVCFVPHELSVRRHTAATETTRVMATRRNVLDRQRILTWLIVDPLSPNSVRSAAALWWIPAWLAMIVEVAVLGPQRRTHLKALAPAPFREFAHARRQLPMAD | not soluble |
